Results from patent publication US20170165337A1 (IMMATICS BIOTECHNOLOGIES, published 2017).

Molecular target: T1, HLA-A*02:01 (human)
T1 construct: MHC class I monomer of the UV-ligand exchange assay; also called peptide-receptive MHC molecules; MHC class I
Assay: UV peptide-exchange ELISA
Method in brief: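 Peptide-MHC complexes formed by UV-mediated exchange of a UV-cleavable peptide for the test peptide; exchange yield quantified by β2m ELISA. Diluted 100-fold, captured on streptavidin-coated plates 1 h at 37 °C, detected with HRP anti-β2m and TMB at 450 nm against refolded HLA-A*02:01 monomer standards (15-500 ng/ml).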

peptide exchange yield | Binder
50 to 75% | SLFGPLPGPGPALV
50 to 75% | NLWSLVAKV
20 to 50% | TLLADQGEIRV
50 to 75% | YLDRKLLTL
50 to 75% | FLDPSLDPLL
50 to 75% | VLYNQRVEEI
≥ 75% | FLLGPEALSFA
50 to 75% | VIAELPPKVSV
50 to 75% | FLDALLTDV
≥ 75% | YMIGSEVGNYL
50 to 75% | FIMEGGAMV
50 to 75% | VVDGTCVAV
50 to 75% | RLLDLENSLLGL
≥ 75% | FIMEGGAMVL
50 to 75% | VLSVITEEL
50 to 75% | YLLEENKIKL
≥ 75% | YLLPLLQRL
50 to 75% | FLEEGGVVTV
50 to 75% | VLWFKPVEL
50 to 75% | YILGKFFAL
50 to 75% | FLLSINDFL
50 to 75% | LISPLLLPV
20 to 50% | FLDEDDMSL
50 to 75% | YLAELVTPIL
50 to 75% | SLADDSVLERL
50 to 75% | SIFASPESV
50 to 75% | YIIDSAQAV
≥ 75% | YLLREWVNL
50 to 75% | YTIPLAIKL
50 to 75% | FLPELPADLEA
